The target of one test is T1, fibrin (Homo sapiens, UniProt P02671+P02675+P02679).
T1 sequence (P02671 36-866 limits assumed): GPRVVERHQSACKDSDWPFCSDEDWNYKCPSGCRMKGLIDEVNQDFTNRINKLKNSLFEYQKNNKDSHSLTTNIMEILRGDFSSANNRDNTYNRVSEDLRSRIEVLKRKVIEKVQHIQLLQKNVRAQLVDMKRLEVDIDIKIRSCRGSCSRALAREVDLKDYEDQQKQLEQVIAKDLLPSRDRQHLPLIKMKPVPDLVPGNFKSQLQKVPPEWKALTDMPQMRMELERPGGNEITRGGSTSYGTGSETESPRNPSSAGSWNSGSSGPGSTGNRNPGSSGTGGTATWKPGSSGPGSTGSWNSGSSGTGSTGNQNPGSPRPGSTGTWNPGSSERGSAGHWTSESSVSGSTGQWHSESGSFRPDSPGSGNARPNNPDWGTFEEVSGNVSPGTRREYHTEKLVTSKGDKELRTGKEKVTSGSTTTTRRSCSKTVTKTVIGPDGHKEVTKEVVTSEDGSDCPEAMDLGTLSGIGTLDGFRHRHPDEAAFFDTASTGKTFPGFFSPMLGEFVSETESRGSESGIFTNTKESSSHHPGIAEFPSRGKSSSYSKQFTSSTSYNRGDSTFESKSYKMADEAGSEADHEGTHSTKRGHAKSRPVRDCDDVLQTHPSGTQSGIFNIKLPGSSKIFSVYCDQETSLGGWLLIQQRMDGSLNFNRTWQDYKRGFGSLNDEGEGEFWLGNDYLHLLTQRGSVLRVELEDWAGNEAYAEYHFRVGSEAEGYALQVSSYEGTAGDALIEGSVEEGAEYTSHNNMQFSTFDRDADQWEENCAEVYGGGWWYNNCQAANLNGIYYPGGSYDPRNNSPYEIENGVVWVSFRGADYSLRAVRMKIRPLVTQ
T1 sequence (P02675 45-491 limits assumed): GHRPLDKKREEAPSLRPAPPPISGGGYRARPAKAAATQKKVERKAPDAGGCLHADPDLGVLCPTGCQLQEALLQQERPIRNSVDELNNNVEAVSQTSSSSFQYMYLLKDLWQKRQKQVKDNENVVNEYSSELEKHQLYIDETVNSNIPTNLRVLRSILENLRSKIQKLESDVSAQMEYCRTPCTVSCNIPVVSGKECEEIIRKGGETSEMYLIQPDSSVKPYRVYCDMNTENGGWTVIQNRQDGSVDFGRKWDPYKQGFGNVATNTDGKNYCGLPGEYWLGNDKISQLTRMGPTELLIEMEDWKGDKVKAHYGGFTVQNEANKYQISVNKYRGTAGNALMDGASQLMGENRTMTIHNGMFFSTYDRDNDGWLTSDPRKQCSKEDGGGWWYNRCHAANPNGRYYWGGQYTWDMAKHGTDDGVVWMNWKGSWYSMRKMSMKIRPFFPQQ
T1 sequence (P02679 27-453): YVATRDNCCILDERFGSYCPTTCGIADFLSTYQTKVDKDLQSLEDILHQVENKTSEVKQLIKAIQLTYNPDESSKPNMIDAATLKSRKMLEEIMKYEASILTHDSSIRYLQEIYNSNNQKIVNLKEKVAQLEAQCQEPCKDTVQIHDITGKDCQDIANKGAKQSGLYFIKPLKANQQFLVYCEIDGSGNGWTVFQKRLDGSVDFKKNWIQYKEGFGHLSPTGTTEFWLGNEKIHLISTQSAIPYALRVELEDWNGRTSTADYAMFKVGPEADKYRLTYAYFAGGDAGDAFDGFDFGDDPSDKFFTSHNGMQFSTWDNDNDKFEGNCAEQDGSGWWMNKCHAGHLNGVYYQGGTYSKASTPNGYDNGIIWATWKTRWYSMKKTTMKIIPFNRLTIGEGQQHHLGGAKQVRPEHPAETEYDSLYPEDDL
Put plainly: Interferometry (Fortébio Blitz) binding of sdFv-microgels to fibrin layer. The conditions noted are these: several concentrations. On the procedure:
Ultralow crosslinked (ULC) microgels (microgels) with highly deformable, dendritic architecture were prepared using standard precipitation polymerization techniques previously described, Clemetson, K. J., Thrombosis Research, 129:220-224 (2012). A 95% pNIPAm/5% AAc composition (poly(N-isopropylacrylamide-co-acrylic acid) was utilized for microgel synthesis which results in microscaffolds ˜1-μm diameter in the swollen state. Co-polymerization with acrylic acid was utilized to allow for carboxylic acid chemoligation sites for sdFv attachment, Fries, et al., British Journal of Anesthesia, 105:116-121 (2010); Granville-Chapman, et al., Injury, 42:447-459 (2011). Following synthesis, microgels were purified using ultracentrifugation and conjugated to fibrin specific sdFvs using standard EDC/NHS chemistry. For confocal fluorescence microscopy experiments, sdFvs were also labeled with maleimide-Alexa Fluor-488 following conjugation to the microgels. To determine basic microgels properties, the particles were characterized using dynamic light scattering to determine the hydrodynamic radius and atomic and force microscopy imaging to characterize morphology. Finally, to ensure that microgels coupled to fibrin-specific sdFvs retained fibrin-binding capabilities, binding of sdFv-microgels to fibrin was determined through interferometry analysis utilizing the Fortébio Blitz system. […]

For another test, the system named is human plasma components. The experiment in a line: Quantitative human plasma binding ELISA. To be noted: five 10-fold plasma dilutions. The method, then:
The quantitative assay involved coating a 96-well high-binding plate with five different 10-fold plasma dilutions. H6, S11, or a positive-control anti-fibrinogen antibody were incubated in these wells to allow for binding with plasma components to occur. All wells were set-up in triplicate. After washing away unbound nanobody or antibody and treating with appropriate secondary antibodies and ELISA reagents, the amount of H6, S11 or anti-fibrinogen antibody remaining in each well was measured spectrophotomerically in a plate reader. All readings were normalized to wells in which PBS was incubated with plasma.

Two molecules from patent publication US11419948B2, “Functionalized microgels with fibrin binding elements” (Georgia Tech Research Corporation, priority 2013, dated 2022) can be followed below.

B1: PLPs: ultra-low crosslinked pNIPAm-AAc microgels conjugated to fibrin-specific sdFv H6 (conjugate)
VH: QVQLLESGGGLVQPGGSLRLSCAASGDRFTHNDMGWVRQAPGKGLEWVSTIPTTDGSTYYADSVKGRFTISRDNSKSTLYLQMNSLRAEDTAVYYCATGYMWKAPAYVKYWGQGTLVTVSSAAAEQKLISEEDLNSAAHYTDIG
For the molecule B1, the “binding of sdFv-microgels to the fibrin layer” value with fibrin was “increased binding to the fibrin layer with increasing concentrations”.

B2: H6: fibrin-specific human sdFv clone from phage biopanning, SEQ ID NO: 1 (protein)
VHH: B1 VH
B2: the “binding to plasma-coated plate” value in the test on human plasma components is listed as “negligible binding”.
